Source: publication PMC5983490, “White-rot basidiomycetes Junghuhnia nitida and Steccherinum bourdotii: Oxidative potential and laccase properties in comparison with Trametes hirsuta and Coriolopsis caperata” (PLoS ONE, 2018)
Like-named read-outs stand apart in the source and are kept apart here.

Assays:
[1] = system: T1, SbL (Steccherinum bourdotii laccase); assay: spectrophotometric oxidation, […] nm, non-linear fit; assay type: biochemical; settings: 0.1 M McIlvaine buffer pH 4.5, 25 °C; read-out: Steccherinaceae group / SbL
T1 construct: peptides most similar to S. murashkinskyi laccase 2 / A. faginea laccase A

[2] = system: T2, JnL (Junghuhnia nitida laccase); assay: spectrophotometric oxidation, […] nm, non-linear fit; assay type: biochemical; settings: 0.1 M McIlvaine buffer pH 4.5, 25 °C; read-out: Steccherinaceae group / JnL
T2 construct: peptides most similar to S. murashkinskyi laccase 2 / A. faginea laccase A

[3] = system: JnL (Junghuhnia nitida laccase); settings: read-out: Steccherinaceae group / JnL; 0.1 M McIlvaine buffer pH 4.5, 25 °C
[4] = system: SbL (Steccherinum bourdotii laccase); settings: read-out: Steccherinaceae group / JnL; 0.1 M McIlvaine buffer pH 4.5, 25 °C
[5] = system: T2, JnL (Junghuhnia nitida laccase); assay: oxygen consumption, Clark-type electrode, non-linear fit; assay type: biochemical; settings: 0.1 M citrate-phosphate buffer pH 4.5, 25 °C; read-out: Steccherinaceae group / JnL
Text: oxygen consumption, Clark-type electrode, non-linear fit on JnL (Junghuhnia nitida laccase)

[6] = system: T1, SbL (Steccherinum bourdotii laccase); assay: as above; assay type: biochemical; settings: 0.1 M citrate-phosphate buffer pH 4.5, 25 °C; read-out: Steccherinaceae group / SbL
Text: oxygen consumption, Clark-type electrode, non-linear fit on SbL (Steccherinum bourdotii laccase)

[7] = system: JnL (Junghuhnia nitida laccase); settings: read-out: Steccherinaceae group / JnL; 0.1 M McIlvaine buffer pH 4.5, 25 °C; remark: listed apart in the source
[8] = system: T1, SbL (Steccherinum bourdotii laccase); assay: spectrophotometric oxidation, […] nm, non-linear fit; assay type: biochemical; settings: 0.1 M McIlvaine buffer pH 4.5, 25 °C; read-out: Steccherinaceae group / SbL; remark: listed apart in the source
[9] = system: T1, SbL (Steccherinum bourdotii laccase); assay: spectrophotometric oxidation, […] nm, non-linear fit; assay type: biochemical; settings: 0.1 M McIlvaine buffer pH 4.5, 25 °C; read-out: Steccherinaceae group / SbL; remark: listed apart in the source
[10] = system: T2, JnL (Junghuhnia nitida laccase); assay: spectrophotometric oxidation, […] nm, non-linear fit; assay type: biochemical; settings: 0.1 M McIlvaine buffer pH 4.5, 25 °C; read-out: Steccherinaceae group / JnL; remark: listed apart in the source
[11] = system: T1, SbL (Steccherinum bourdotii laccase); assay: spectrophotometric oxidation, […] nm, non-linear fit; assay type: biochemical; settings: 0.1 M McIlvaine buffer pH 4.5, 25 °C; read-out: Steccherinaceae group / SbL; remark: listed apart in the source
[12] = system: T2, JnL (Junghuhnia nitida laccase); assay: spectrophotometric oxidation, […] nm, non-linear fit; assay type: biochemical; settings: 0.1 M McIlvaine buffer pH 4.5, 25 °C; read-out: Steccherinaceae group / JnL; remark: listed apart in the source
purified protein [13] = substrate: COc1cc(/C=C/C(=O)O)ccc1O; assay: purified protein; settings: 0.1 M McIlvaine buffer pH 4.5, 25 °C
[14] = substrate: O=C(O)c1cc(O)c(O)c(O)c1; assay: purified protein, by the assay type; parameters: Laccase substrate oxidation kinetics, spectrophotometric initial rates, 25 °C, McIlvaine buffer pH 4.5; settings: 25.0 °C
Method: (§1) Kinetic constants were measured spectrophotometrically using a PerkinElmer Lambda 35 spectrophotometer (USA) at 25°C. […] 10 μl of enzyme solution at a concentration of 1 mg·ml^-1 (50 mM potassium phosphate buffer pH 6.5) was added to 2 ml substrate solution in 0.1 M McIlvaine buffer, pH 4.5. The reaction rate was measured by monitoring of the absorbance change during 3 min. […] It is interesting that syringyl-type substrates like 2,6-DMP, sinapic acid and syringaldazine were better in terms of Km and kcat/Km values for JnL and SbL compared to CcL and ThL.

[15] = substrate: Oc1ccccc1O; assay: purified protein, by the assay type; parameters: Laccase substrate oxidation kinetics, spectrophotometric initial rates, 25 °C, McIlvaine buffer pH 4.5; settings: 25.0 °C
Method: as §1

[16] = substrate: COc1ccccc1O; assay: purified protein, by the assay type; parameters: Laccase substrate oxidation kinetics, spectrophotometric initial rates, 25 °C, McIlvaine buffer pH 4.5; settings: 25.0 °C
Method: as §1

[17] = substrate: COc1cccc(OC)c1O; assay: purified protein, by the assay type; parameters: Laccase substrate oxidation kinetics, spectrophotometric initial rates, 25 °C, McIlvaine buffer pH 4.5; settings: 25.0 °C
Method: as §1

purified protein [18] = substrate: COc1cc(/C=C/C(=O)O)cc(OC)c1O; assay: purified protein; assay type: biochemical, Cerrena caperata; settings: 0.1 M McIlvaine buffer pH 4.5, 25 °C
purified protein [19] = substrate: COc1cc(C=NN=Cc2cc(OC)c(O)c(OC)c2)cc(OC)c1O; assay: purified protein; assay type: biochemical, Cerrena caperata; settings: 0.1 M McIlvaine buffer pH 4.5, 25 °C
[20] = substrate: COc1cc([C@@H]2OC[C@@H]3[C@H]2CO[C@H]3c2ccc(O)c(OC)c2)ccc1O; assay: oxygen consumption, Clark-type electrode, non-linear fit; assay type: biochemical, Trametes hirsuta; settings: 0.1 M citrate-phosphate buffer pH 4.5, 25 °C
Text: oxygen consumption, Clark-type electrode, non-linear fit on ThL (Trametes hirsuta laccase)

[21] = substrate: COc1cc(/C=C/C(=O)O)ccc1O; assay: purified protein, by the assay type; parameters: Laccase substrate oxidation kinetics, spectrophotometric initial rates, 25 °C, McIlvaine buffer pH 4.5; settings: 25.0 °C
Method: as §1

[22] = substrate: COc1cc(C=NN=Cc2cc(OC)c(O)c(OC)c2)cc(OC)c1O; assay: purified protein, by the assay type; parameters: Laccase substrate oxidation kinetics, spectrophotometric initial rates, 25 °C, McIlvaine buffer pH 4.5; settings: 25.0 °C
Method: as §1

purified protein [23] = substrate: COc1cc(/C=C/C(=O)O)cc(OC)c1O; assay: purified protein; assay type: biochemical, Trametes hirsuta; settings: 0.1 M McIlvaine buffer pH 4.5, 25 °C
purified protein [24] = substrate: COc1cccc(OC)c1O; assay: purified protein; assay type: biochemical, Trametes hirsuta; settings: 0.1 M McIlvaine buffer pH 4.5, 25 °C

COc1cc(/C=C/C(=O)O)cc(OC)c1O [Sinapic acid]
Km [1]: 8 ± 1 µM | Km [2]: 9 ± 1 µM

CCn1c(=NN=c2sc3cc(S(=O)(=O)O)ccc3n2CC)sc2cc(S(=O)(=O)O)ccc21 [ABTS]
Km [3]: 17 ± 2 µM | Km [4]: 17 ± 2 µM

COc1cc([C@@H]2OC[C@@H]3[C@H]2CO[C@H]3c2ccc(O)c(OC)c2)ccc1O [Pinoresinol]
Km [5]: 89 ± 12 µM | Km [6]: 149 ± 22 µM

COc1cc(/C=C/C(=O)O)ccc1O [Ferulic acid]
Km [7]: 19 ± 1 µM | Km [8]: 19 ± 2 µM

COc1cccc(OC)c1O [2,6-DMP]
Km [9]: 8 ± 1 µM | Km [10]: 7 ± 1 µM

COc1cc(C=NN=Cc2cc(OC)c(O)c(OC)c2)cc(OC)c1O [Syringaldazine]
Km [11]: 1 ± 0.3 µM | Km [12]: 2 ± 0.4 µM

B1: CcL (Coriolopsis caperata laccase) (Cerrena caperata) (protein)
chain: GIGPVTDLTISDGPVSPDGFTRQAILVNNQFPSPLITGNKGDRFQLNVIDNMNNHTMLKSTSIHWHGFFQHGTNWADGPAFVNQCPISPGHSFLYDFQVPDQAGTFWYHSHLSTQYCDGLRGPIVVYDPQDPHKDLYDVDDDSTVITLADWYHLAAKVGPAVPTADATLINGLGRSISTLNADLAVISVTKGKRYRFRLVSLSCDPNHTFSIDGHTMTVIEADSVNLKPQVVDSIQIFAAQRYSFVLNADQDIGNYWIRAMPNSGTRNFDGGVNSAILRYDGADPVEPTTTQTPSSQPLVESALTTLEGTAAPGSPTAGGVDLAINMAFGFAGGRFTINGASFTPPTVPVLLQILSGAQNAQDLLPTGSVYSLPANADIEISLPATAAAPGFPHPFHLHGHTFAVVRSAGSSTYNYANPVYRDVVSTGSPGDNVTIRFRTDNPGPWFLHCHIDFHLEAGFAVVMAEDIPDVAAVNPVPQAWSDLCPTYNALDPNDQ
Km (purified protein [13]): 20 ± 2 µM | kcat (purified protein [13]): 234 s⁻¹ | kcat/Km (purified protein [13]): 1.17e+07 M⁻¹ s⁻¹ | Km [14]: 129 µM | kcat [14]: 55 ± 2 s⁻¹ | kcat/Km [14]: 434000 M⁻¹ s⁻¹ | Km [15]: 815 µM | kcat [15]: 269 ± 6 s⁻¹ | kcat/Km [15]: 330000 M⁻¹ s⁻¹ | Km [16]: 696 µM | kcat [16]: 165 ± 12 s⁻¹ | kcat/Km [16]: 237000 M⁻¹ s⁻¹ | Km [17]: 65 µM | kcat [17]: 121 ± 8 s⁻¹ | kcat/Km [17]: 1.86e+06 M⁻¹ s⁻¹ | Km (purified protein [18]): 17 ± 2 µM | kcat (purified protein [18]): 324 ± 31 s⁻¹ | kcat/Km (purified protein [18]): 1.91e+07 M⁻¹ s⁻¹ | Km (purified protein [19]): 5 ± 0.3 µM | kcat (purified protein [19]): 122 ± 2 s⁻¹ | kcat/Km (purified protein [19]): 2.44e+07 M⁻¹ s⁻¹

B2: ThL (Trametes hirsuta laccase) (Trametes hirsuta) (protein)
chain: AVGPVADLTITDAAVSPDGFSRQAVVVNGVTPGPLVAGNIGDRFQLNVIDNLTNHTMLKSTSIHWHGFFQHGTNWADGPAFINQCPISPGHSFLYDFQVPDQAGTFWYHSHLSTQYCDGLRGPFVVYDPNDPHASRYDVDNDDTVITLADWYHTAAKLGPRFPGGADATLINGKGRAPSDSPAELSVIKVTKGKRYRFRLVSLSCNPNHTFSIDGHNLTIIEVDSVNSQPLEVDSIQIFAAQRYSFVLDANQAVDNYWIRANPNFGNVGFDGGINSAILRYDGAPAVEPTTNQTTSVKPLNEVDLHPLVSTPVPGSPSSGGVDKAINMAFNFNGSNFFINGASFVPPTVPVLLQILSGAQTAQDLLPSGSVYVLPSNASIEISFPATAAAPGAPHPFHLHGHTFAVVRSAGSTVYNYDNPIFRDVVSTGTPAAGDNVTIRFDTNNPGPWFLHCHIDFHLEGGFAVVMAEDTPDVKAVNPVPQAWSDLCPTYDALDPNDQ
Km [20]: 61 ± 8 µM | kcat [20]: 73 ± 3 s⁻¹ | kcat/Km [20]: 1.2e+06 M⁻¹ s⁻¹ | Km [14]: 223 µM | kcat [14]: 58 ± 3 s⁻¹ | kcat/Km [14]: 260000 M⁻¹ s⁻¹ | Km [15]: 183 µM | kcat [15]: 302 ± 27 s⁻¹ | kcat/Km [15]: 1.65e+06 M⁻¹ s⁻¹ | Km [21]: 28 µM | kcat [21]: 270 ± 25 s⁻¹ | kcat/Km [21]: 9.64e+06 M⁻¹ s⁻¹ | Km [16]: 173 µM | kcat [16]: 162 ± 10 s⁻¹ | kcat/Km [16]: 976000 M⁻¹ s⁻¹ | Km [22]: 34 µM | kcat [22]: 131 ± 10 s⁻¹ | kcat/Km [22]: 3.85e+06 M⁻¹ s⁻¹ | Km (purified protein [23]): 13 ± 1 µM | kcat (purified protein [23]): 317 ± 23 s⁻¹ | kcat/Km (purified protein [23]): 2.44e+07 M⁻¹ s⁻¹ | Km (purified protein [24]): 24 ± 2 µM | kcat (purified protein [24]): 128 ± 11 s⁻¹ | kcat/Km (purified protein [24]): 5.33e+06 M⁻¹ s⁻¹
